{
  "source": "patent US20190218553",
  "about": "“VON WILLEBRAND FACTOR (VWF)-TARGETING AGENTS AND METHODS OF USING THE SAME” (DUKE UNIVERSITY, published 2019)",
  "binders": {"B1": {"name": "T25 vrt5 (ssRNA)", "RNA": "ACGAACUGCCCUCAGCUACUUUCAUGUUGCUGACGCACAGACGU", "modifications": "rAfCrGmAmAfCfUrGfCfCfCfUfCrArGfCfUrAfCfUfUfUfCrAfUrGfUfUrGfCfUrGrAfCrGfCrAfCmAmGmAfCrGfU-idT"}, "B2": {"name": "T25 vrt14 (ssRNA)", "RNA": "B1 RNA", "modifications": "mAfCrGrArAfCfUrGfCfCfCfUfCrArGfCfUrAfCfUfUfUfCrAfUrGfUfUrGfCfUrGrAfCrGfCrAfCrArGrAfCrGmU-idT"}, "B3": {"name": "T25 vrt15 (ssRNA)", "RNA": "B1 RNA", "modifications": "rAmCrGrArAfCfUrGfCfCfCfUfCrArGfCfUrAfCfUfUfUfCrAfUrGfUfUrGfCfUrGrAfCrGfCrAfCrArGrAfCmGfU-idT"}, "B4": {"name": "T25 vrt6 (ssRNA)", "RNA": "B1 RNA", "modifications": "rAfCrGmAmAmCfUrGfCfCfCfUfCrArGfCfUrAfCfUfUfUfCrAfUrGfUfUrGfCfUrGrAfCrGfCrAmCmAmGmAfCrGfU-idT"}, "B5": {"name": "T90 vrt1 (ssRNA)", "RNA": "ACGAACUGCCCUCUAUUAUUUGACGCACAGACGU", "modifications": "2'-F C2,U7,C9,C10,C11,U12,C24,C26,C32,U34; ribo A1,G3,G8,A23,G25,A27,G33; rest 2'-OMe; 3' idT"}, "B6": {"name": "T83 vrt1 (ssRNA)", "RNA": "ACGAACUGCCCUCGAUCGACGCACAGACGUAAAAA", "modifications": "2'-F C2,U7,C9,C10,C11,U12,C20,C22,C28,U30; ribo A1,G3,G8,A19,G21,A23,G29; rest 2'-OMe; 3' idT"}},
  "key": {"[1]": {"target": "T1, von Willebrand factor (VWF) (Homo sapiens, UniProt P04275 P04275:764-2813)", "assay": "filter; Bmax 82%; 2 mM CaCl2, 37 C", "settings": "Haematologic Technologies Inc, label: 5'-32P", "protocol": "(§1) Affinity constants (Kd values) were determined using double-filter nitrocellulose filter binding assays (Rusconi et al, Thromb. Haemost. $4:841-848 (2000)). All binding studies were performed in binding buffer F (20 mM HEPES, pH 7.4, 150 mM NaCl, 2 mM CaCl₂, and 0.01% BSA) at 37° C. Human purified VWF (factor VIII free) was purchased from Haematologic Technologies Inc. (Essex Junction, Vt.) and used in the double-filter nitrocellulose filter binding assay to determine the Kd of the aptamers. Briefly, RNA were end-labeled at the 5′ end with T4 polynucleotide kinase (New England Biolabs, Beverly, Mass.) and [γ³²P] ATP (Amersham Pharmacia Biotech, Piscataway, N.J.) (Fitzwater and Polisky, Methods Enzymol. 267:275-301 (1996)). End-labeled RNA was diluted in binding buffer F, heat denatured at 65° C. for 5 minutes, and subsequently equilibrated at 37° C. Direct binding was performed by incubating trace ³²P-RNA with varying concentrations of VWF protein in binding buffer F at 37° C. for 5 min. The fraction of the nucleic acid-protein complex which bound to the nitrocellulose membrane was quantified with a phosphorimager (Molecular Dynamics, Sunnyvale, Calif.). Non-specific binding of the radiolabeled nucleic acid was subtracted out of the binding such that only specific binding remained (Wong and Lohman, Proc. Natl. Acad. Sci. USA 90:5428-5432 (1993))."}, "[2]": {"target": "T1, von Willebrand factor (VWF)", "assay": "filter; Bmax 87%; 2 mM CaCl2, 37 C", "settings": "Haematologic Technologies Inc, label: 5'-32P", "protocol": "as §1"}, "[3]": {"target": "T1, von Willebrand factor (VWF)", "assay": "filter; Bmax 86%; 2 mM CaCl2, 37 C", "settings": "tags: factor VIII free, Haematologic Technologies Inc; label: 5'-32P", "protocol": "as §1"}, "[4]": {"target": "T1, von Willebrand factor (VWF)", "assay": "filter; Bmax 58%; 2 mM CaCl2, 37 C", "settings": "tags: factor VIII free, Haematologic Technologies Inc; label: 5'-32P", "protocol": "as §1"}, "[5]": {"target": "T1, von Willebrand factor (VWF)", "assay": "filter; Bmax 67%; 2 mM CaCl2, 37 C", "settings": "tags: factor VIII free, Haematologic Technologies Inc; label: 5'-32P", "protocol": "as §1"}, "[6]": {"target": "T1, von Willebrand factor (VWF)", "assay": "filter; Bmax 54%; 2 mM CaCl2, 37 C", "settings": "tags: factor VIII free, Haematologic Technologies Inc; label: 5'-32P", "protocol": "as §1"}, "[7]": {"target": "T1, von Willebrand factor (VWF)", "assay": "filter; Bmax 73%; 2 mM CaCl2, 37 C", "settings": "Haematologic Technologies Inc, label: 5'-32P", "protocol": "as §1"}, "[8]": {"target": "T1, von Willebrand factor (VWF)", "assay": "filter; Bmax 80%; 2 mM CaCl2, 37 C", "settings": "Haematologic Technologies Inc, label: 5'-32P", "protocol": "as §1"}, "[9]": {"target": "T1, von Willebrand factor (VWF)", "assay": "filter; Bmax 81%; 2 mM CaCl2, 37 C", "settings": "tags: factor VIII free, Haematologic Technologies Inc; label: 5'-32P", "protocol": "as §1"}, "[10]": {"settings": "tags: factor VIII free human purified VWF"}},
  "data": [
    {"binder": "ACGAACUGCCCUCUAUUUCAUUUGACGCACAGACGU (ssRNA, 2'-F C9,C10,C11,C26,C28; ribo G27; rest 2'-OMe; 3' idT)", "note": "[T93 vrt4]", "values": [
      {"measurement": "Kd", "setting": "[1]; [10]", "result": 5.7, "unit": "nM"}
    ]},
    {"binder": "ACGAACUGCCCUCUAUUUCAUUUGACGCACAGACGU (ssRNA, 2'-F C9,C10,C11,C26,G27,C28,U36; rest 2'-OMe; 3' idT)", "note": "[T93 vrt6]", "values": [
      {"measurement": "Kd", "setting": "[1]; [10]", "result": 33, "unit": "nM"}
    ]},
    {"binder": "ACGAACUGCCCUCGAUCGACGCACAGACGU (ssRNA, rAfCrGmAmAmCfUrGfCfCfCmUmCmGmAmUmCmGmAfCrGfCrAmCmAmGmAfCrGfU-idT)", "note": "[T59 vrt2]", "values": [
      {"measurement": "Kd", "setting": "[2]; tags: factor VIII free", "result": 5.5, "unit": "nM"}
    ]},
    {"binder": "ACGAACUGCCCUCUUAUGACGCACAGACGU (ssRNA, 2'-F C and U; 2'-OH A and G; 3' idT)", "note": "[T68]", "values": [
      {"measurement": "Kd", "setting": "[1]; tags: factor VIII free", "result": 16, "unit": "nM"}
    ]},
    {"binder": "ACGAACUGCCCUCGAUCGACGCACAGACGU (ssRNA, rAmCrGmAmAmCfUrGfCfCfCfUmCmGmAmUmCmGrAfCrGfCrAmCmAmGmAfCmGfU-idT)", "note": "[T59 vrt9]", "values": [
      {"measurement": "Kd", "setting": "[3]", "result": 1, "unit": "nM"}
    ]},
    {"binder": "CCGAACUGCCCUCGAUCGACGCACAGACGG (ssRNA, mCmCmGmAmAmCmUmGfCfCfCmUmCmGmAmUmCmGmAfCrGfCmAmCmAmGmAmCmGmGidT)", "note": "[DTRI-013]", "values": [
      {"measurement": "Kd", "setting": "[4]", "result": 5.4, "unit": "nM"}
    ]},
    {"binder": "ACGAACUGCCCUCGAUCGACGCACAGACGU (ssRNA, mAmCmGmAmAmCmUmGfCfCfCmUmCmGmAmUmCmGmAfCrGfCmAmCmAmGmAmCmGmUidT)", "note": "[DTRI-008]", "values": [
      {"measurement": "Kd", "setting": "[5]", "result": 7, "unit": "nM"}
    ]},
    {"binder": "ACGAACUGCCCUCAGCAUUUCAUUGCUGACGCACAGACGU (ssRNA, 2'-F C and U; 2'-OH A and G; 3' idT)", "note": "[T40]", "values": [
      {"measurement": "Kd", "setting": "[6]", "result": 11, "unit": "nM"}
    ]},
    {"binder": "B1", "values": [
      {"measurement": "Kd", "setting": "[4]", "result": 7.1, "unit": "nM"}
    ]},
    {"binder": "B2", "values": [
      {"measurement": "Kd", "setting": "[6]", "result": 9.2, "unit": "nM"}
    ]},
    {"binder": "B3", "values": [
      {"measurement": "Kd", "setting": "[7]; tags: factor VIII free", "result": 7.3, "unit": "nM"}
    ]},
    {"binder": "B4", "values": [
      {"measurement": "Kd", "setting": "[5]", "result": 3.1, "unit": "nM"}
    ]},
    {"binder": "ACGAACUGCCCUCAGCUACUUUCAUGUUGCUGACGCACAGACGU (ssRNA, 2'-F C and U; 2'-OH A and G; 3' idT)", "note": "[T25]", "values": [
      {"measurement": "Kd", "setting": "[6]", "result": 13.4, "unit": "nM"}
    ]},
    {"binder": "ACGAACUGCCCUCGAUCGACGCACAGACGU (ssRNA, mAmCmGmAmAmCfUrGfCfCfCfUmCmGmAmUmCmGrAfCrGfCrAmCmAmGmAmCmGfU-idT)", "note": "[T59 vrt6]", "values": [
      {"measurement": "Kd", "setting": "[1]; tags: factor VIII free", "result": 0.5, "unit": "nM"}
    ]},
    {"binder": "B5", "values": [
      {"measurement": "Kd", "setting": "[2]; [10]", "result": 0.9, "unit": "nM"}
    ]},
    {"binder": "ACGAACUGCCCUCUAUUAUUUGACGCACAGACGU (ssRNA, 2'-F C9,C10,C11,C24,G25,C26; rest 2'-OMe; 3' idT)", "note": "[T90 vrt7]", "values": [
      {"measurement": "Kd", "setting": "[8]; [10]", "result": 42, "unit": "nM"}
    ]},
    {"binder": "ACGAACUGCCCUCUAUUAUUUGACGCACAGACGU (ssRNA, 2'-F C9,C10,C11,C24,G25,C26,U34; rest 2'-OMe; 3' idT)", "note": "[T90 vrt6]", "values": [
      {"measurement": "Kd", "setting": "[8]; [10]", "result": 46, "unit": "nM"}
    ]},
    {"binder": "ACGAACUGCCCUCGAUCGACGCACAGACGU (ssRNA, mAmCmGmAmAmCmUmGfCfCfCmUmCmGmAmUmCmGmAfCrGfCmAmCmAmGmAmCmGfUidT)", "note": "[DTRI-006]", "values": [
      {"measurement": "Kd", "setting": "[8]; tags: factor VIII free", "result": 7, "unit": "nM"}
    ]},
    {"binder": "ACGAACUGCCCUCGAUCGACGCACAGACGU (ssRNA, mAmCmGmAmAmCfUrGfCfCfCmUmCmGmAmUmCmGmAfCrGfCrAmCmAmGmAmCmGfU-idT)", "note": "[T59 vrt14]", "values": [
      {"measurement": "Kd", "setting": "[9]", "result": 1.7, "unit": "nM"}
    ]},
    {"binder": "ACGAACUGCCCUCGAUCGACGCACAGACGU (ssRNA, mAmCmGmAmAmCmUmGfCfCfCmUmCmGmAmUmCmGmAfCrGfCmAmCmAmGmAmCmGfU-idT)", "note": "[T59 vrt19]", "values": [
      {"measurement": "Kd", "setting": "[1]; tags: factor VIII free", "result": 5.5, "unit": "nM"}
    ]},
    {"binder": "ACGAACUGCCCUCAGCUAUUUCAUUUGCUGACGCACAGACGU (ssRNA, 2'-F C and U; 2'-OH A and G; 3' idT)", "note": "[T36]", "values": [
      {"measurement": "Kd", "setting": "[4]", "result": 11, "unit": "nM"}
    ]},
    {"binder": "ACGAACUGCCCUCGAUCGACGCACAGACGU (ssRNA, rAfCmGmAmAmCfUrGfCfCfCfUmCmGmAmUmCmGrAfCrGfCrAmCmAmGmAmCrGfU-idT)", "note": "[T59 vrt10]", "values": [
      {"measurement": "Kd", "setting": "[9]", "result": 0.4, "unit": "nM"}
    ]},
    {"binder": "B6", "values": [
      {"measurement": "Kd", "setting": "[7]; [10]", "result": 2.1, "unit": "nM"}
    ]}
  ]
}
